According to publication PMC4619830:

Biological target: T1, SoxR (MerR-type HTH transcriptional regulator) (Acinetobacter baumannii AYE) (UniProt C7FFS1)
T1 sequence: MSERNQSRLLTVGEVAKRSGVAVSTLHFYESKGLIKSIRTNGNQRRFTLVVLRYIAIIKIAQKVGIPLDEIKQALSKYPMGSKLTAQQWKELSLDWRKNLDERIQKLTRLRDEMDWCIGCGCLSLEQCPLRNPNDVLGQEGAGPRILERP
Experiment: EMSA
Details: not stated (gel shift as described previously, 20)

GGCTGCTCGGTATGATGTCGTTAATTAACAGAAGTAAATGCCGCTTCGAGATTTTGTGATGATCAACGAGCGGTATAAAAAAGACAAGTAGAATTAAACAATAAATGTAATTAAGACAAAAACAAAGCGTGATTGAATATTTCCAACAAACCAATAAAAAACCAGTTAACGAGTGTCACTTAAAATTCATGAATTCTTCATGATCATGTCAAACAAAGCA (double strand) [abeD promoter fragment]
binding: binds
